Results on one substance are retold here after paper PMC6989608.

The target in the test is Recombinant PP99 gp55 tail spike protein (Pectobacterium phage PP99). Kind of test: SEC; gel-filtration of purified PP99 gp55 on a calibrated Superdex 200 10 x 300 column; oligomeric state.

As a reminder, the stoichiometry N is the number of molecules, sites or subunits per partner or assembly.

As for “Recombinant PP99 gp55 tail spike protein (natural protein)”, the stoichiometry N came to 3.
